Measurements: publication PMC8053111, “MKRN3-mediated ubiquitination of Poly(A)-binding proteins modulates the stability and translation of GNRH1 mRNA in mammalian puberty” (Nucleic Acids Research, 2021)

Assays:
PABPC1 = PABPC1 (human, UniProt P11940 1-636); assay: EMSA; unmodified; EMSA Binding Buffer (Beyotime, 5x stock; composition, salt and pH not given), room temperature, 1 h; 8% polyacrylamide 0.5x TBE gel; settings: protein: recombinant; tags: Flag-His6 (pET28a-PABPC1-Flag-His6); label: 32P (gamma-32P, stated at 3' end by T4 PNK); single strand
PABPC4 = PABPC4 (human, UniProt Q13310 1-644); assay: as above; settings: protein: recombinant; tags: Flag-His6 (pET28a-PABPC4-Flag-His6); label: 32P (gamma-32P, stated at 3' end by T4 PNK); single strand
PABPC1-His6 = target: T1, PABPC1-His6 (human, UniProt P11940 1-636); assay: pull-down; GST pull-down: 20 μg purified Gst-MKRN or MKRN3 truncation, 20 μg PABP-His6 or truncation and Glutathione Sepharose 4B, 4°C overnight in 500 μl of 20 mM Tris-Cl, 100 mM NaCl, 5 mM MgCl2, 1 mM EDTA, 1 mM DTT, 0.5% NP-40, 10 μg/ml BSA, pH 7.5; five washes; Coomassie staining and anti-His immunoblot; settings: both partners purified
T1 construct: PABPC1, human, full length; Written PABPC1-His6; also called His6-tagged PABPC1; full length PABPC1; source: E. coli BL21, purified (Ni beads, eluted with imidazole, dialyzed)

PABPC3-His6 = target: T2, PABPC3-His6 (human, UniProt Q9H361 1-631); assay: as above; settings: both partners purified
T2 construct: PABPC3, human; also called His6-tagged PABPC3; source: E. coli BL21, purified (Ni beads, eluted with imidazole, dialyzed)
T2 sequence (Q9H361 whole entry): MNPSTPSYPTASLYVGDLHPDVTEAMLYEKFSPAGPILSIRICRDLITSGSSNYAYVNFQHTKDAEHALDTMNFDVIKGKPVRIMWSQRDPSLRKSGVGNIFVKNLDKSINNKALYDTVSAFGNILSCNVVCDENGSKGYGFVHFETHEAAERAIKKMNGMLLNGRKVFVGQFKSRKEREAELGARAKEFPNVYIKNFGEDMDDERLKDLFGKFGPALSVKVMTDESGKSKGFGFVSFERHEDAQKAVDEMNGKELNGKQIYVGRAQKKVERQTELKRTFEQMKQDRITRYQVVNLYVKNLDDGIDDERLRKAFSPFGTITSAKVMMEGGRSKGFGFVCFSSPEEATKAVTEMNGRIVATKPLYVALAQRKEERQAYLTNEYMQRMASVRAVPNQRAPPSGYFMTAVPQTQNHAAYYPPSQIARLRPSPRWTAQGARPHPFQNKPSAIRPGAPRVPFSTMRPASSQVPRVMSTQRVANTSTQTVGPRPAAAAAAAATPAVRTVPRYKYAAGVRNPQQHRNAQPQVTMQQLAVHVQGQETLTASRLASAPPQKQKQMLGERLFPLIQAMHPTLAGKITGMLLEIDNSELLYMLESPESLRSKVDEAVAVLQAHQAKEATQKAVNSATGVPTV

T1 sequence (P11940 whole entry, the tested form may be a part): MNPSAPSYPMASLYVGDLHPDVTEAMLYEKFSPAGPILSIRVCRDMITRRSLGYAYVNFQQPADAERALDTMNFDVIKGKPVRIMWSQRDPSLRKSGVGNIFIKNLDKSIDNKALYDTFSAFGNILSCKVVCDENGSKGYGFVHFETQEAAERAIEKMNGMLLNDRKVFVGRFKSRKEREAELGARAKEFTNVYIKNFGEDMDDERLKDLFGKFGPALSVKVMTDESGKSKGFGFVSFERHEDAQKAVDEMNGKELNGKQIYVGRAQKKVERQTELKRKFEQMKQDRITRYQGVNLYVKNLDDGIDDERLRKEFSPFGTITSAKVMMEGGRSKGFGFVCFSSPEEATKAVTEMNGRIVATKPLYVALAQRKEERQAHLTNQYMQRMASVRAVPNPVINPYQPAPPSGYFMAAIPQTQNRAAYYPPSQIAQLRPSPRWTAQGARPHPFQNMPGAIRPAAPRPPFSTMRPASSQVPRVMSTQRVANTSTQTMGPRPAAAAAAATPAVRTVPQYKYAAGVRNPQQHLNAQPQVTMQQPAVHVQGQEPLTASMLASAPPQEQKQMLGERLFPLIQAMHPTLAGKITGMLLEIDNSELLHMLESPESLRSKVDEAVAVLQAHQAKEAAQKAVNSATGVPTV
Sequence of PABPC1 (P11940 whole entry): as the sequence (P11940 whole entry, the tested form may be a part) above
Sequence of PABPC4 (Q13310 whole entry, the tested form may be a part): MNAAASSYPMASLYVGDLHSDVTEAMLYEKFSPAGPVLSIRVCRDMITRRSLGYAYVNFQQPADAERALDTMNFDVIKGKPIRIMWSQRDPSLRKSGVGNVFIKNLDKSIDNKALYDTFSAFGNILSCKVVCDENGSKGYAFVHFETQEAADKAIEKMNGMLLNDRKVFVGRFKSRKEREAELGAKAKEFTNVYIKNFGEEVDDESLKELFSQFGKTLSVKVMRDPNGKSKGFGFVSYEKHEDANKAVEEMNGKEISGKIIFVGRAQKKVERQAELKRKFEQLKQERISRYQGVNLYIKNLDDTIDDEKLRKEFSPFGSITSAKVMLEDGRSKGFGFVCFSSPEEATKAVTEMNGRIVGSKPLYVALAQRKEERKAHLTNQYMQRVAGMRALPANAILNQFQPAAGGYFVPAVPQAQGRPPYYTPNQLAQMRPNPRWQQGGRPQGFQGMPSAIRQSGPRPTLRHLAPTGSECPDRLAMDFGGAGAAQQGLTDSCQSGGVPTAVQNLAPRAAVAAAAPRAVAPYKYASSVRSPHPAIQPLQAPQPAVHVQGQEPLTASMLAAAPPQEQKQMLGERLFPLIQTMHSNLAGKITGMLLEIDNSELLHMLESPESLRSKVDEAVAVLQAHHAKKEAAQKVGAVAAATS

Row | binding result (PABPC1-His6) | binding result (PABPC3-His6) | Binder | binding result (PABPC1) | binding result (PABPC4)
1 |  |  | AAAAAAAAAAAAAAAAAAAAAAAAAAAAAA (ssRNA) [(A)30 RNA] | binds | binds
2 | binds |  | Gst-MKRN3 middle region (126-295aa) (domain or fragment, human, UniProt Q13064 126-295, looked up, source: E. coli BL21, purified (glutathione beads, eluted with reduced glutathione, dialyzed)) MATEGGVSPPGASAGGGPSTAAHIEPPTQEVAEAPPAASSLSLPVIGSAAERGFFEAERDNADRGAAGGAGVESWADAIEFVPGQPYRGRWVASAPEAPLQSSETERKQMAVGSGLRFCYYASRGVCFRGESCMYLHGDICDMCGLQTLHPMDAAQREEHMRACIEAHEK |  | 
3 | binds | binds | recombinant Gst-tagged MKRN3 (natural protein, human, UniProt Q13064 1-507, looked up, MKRN3, human, full length; Written Gst-MKRN3; also called Gst-MKRN3; full length MKRN3; source: E. coli BL21, purified (glutathione beads, eluted with reduced glutathione, dialyzed)) MEEPAAPSEAHEAAGAQAGAEAAREGVSGPDLPVCEPSGESAAPDSALPHAARGWAPFPVAPVPAHLRRGGLRPAPASGGGAWPSPLPSRSSGIWTKQIICRYYIHGQCKEGENCRYSHDLSGRKMATEGGVSPPGASAGGGPSTAAHIEPPTQEVAEAPPAASSLSLPVIGSAAERGFFEAERDNADRGAAGGAGVESWADAIEFVPGQPYRGRWVASAPEAPLQSSETERKQMAVGSGLRFCYYASRGVCFRGESCMYLHGDICDMCGLQTLHPMDAAQREEHMRACIEAHEKDMELSFAVQRGMDKVCGICMEVVYEKANPNDRRFGILSNCNHSFCIRCIRRWRSARQFENRIVKSCPQCRVTSELVIPSEFWVEEEEEKQKLIQQYKEAMSNKACRYFAEGRGNCPFGDTCFYKHEYPEGWGDEPPGPGGGSFSAYWHQLVEPVRMGEGNMLYKSIKKELVVLRLASLLFKRFLSLRDELPFSEDQWDLLHYELEEYFNLIL |  | 
